Measurements reported in patent US20030045681A1 (published 2003).

Key:
hen egg lysozyme (hen) = hen egg lysozyme (hen) (UniProt P00698); assay: radiolabeled scFv loaded onto an antigen column, flow-through and eluate counted
[1] = target: an irrelevant antigen (antigen of HyHEL-10, not given); assay: affinity chromatography of the conjugate on an antigen column
[2] = target: T1, recombinant ED-B domain of fibronectin (UniProt P02751 1266-1356, biotinylated (biotin disulfide N-hydroxysuccinimide ester) in ELISA and the ECL competition; Cy5 at the N-terminal extremity in the band-shift assay); assay: SPR (BIAcore); the footnote calls this value not sufficiently reliable
T1 construct: domain: ED-B; also called biotinylated ED-B; ED-B-biotin
Experimental: (§1) Meth., 206, 171-182) and affinity purified onto a CNBr-activated sepharose column (Pharmacia, Uppsala, Sweden), which had been coupled with 10 mg of ED-B containing 7B89 recombinant protein (Carnemolla et al. (1996). Int. J. Cancer, 68, 397-405). After loading, the column was washed with 50 ml of equilibration buffer (PBS, 1 mM EDTA, 0.5 M NaCl). Antibody fragments were then eluted with triethylamine 100 mM, immediately neutralised with 1M Hepes, pH 7, and dialysed against PBS. Affinity measurements by BIAcore were performed with purified antibodies as described (Neri et al. (1997). Nature Biotechnol., 15 1271-1275) [FIG. 4]. Band-shift analysis was performed as described (Neri et al. (1996). Nature Biotechnology, 14, 385-390), using recombinant ED-B fluorescently labeled at the N-terminal extremity (Carnemolla et al. (1996). Int. J. Cancer, 68, 397-405, Neri et al. (1997). Nature Biotechnol., 15 1271-1275) with the infrared fluorophore Cy5 (Amersham) [FIG. 4]. […] We therefore performed measurements of the kinetic dissociation constant koff by competition experiments (Neri et al. (1996), Trends in Biotechnol., 14, 465-470) [FIG. 4]. […] Streptavidin-coated dynabeads, diluted in Origen Assay Buffer (Deaver, D. R. (1995). Nature, 377, 758-760) were then added (20 μl, 1 mg/ml), and the resulting mixtures analysed with a ORIGEN Analyzer (IGEN Inc. Gaithersburg, Md. USA). […]

[3] = target: T1, recombinant ED-B domain of fibronectin; assay: Kd = koff/kon, koff from ECL competition, kon from BIAcore
Experimental: as §1, with “Int.” for “Meth., 206, 171-182) and affinity purified onto a CNBr-activated sepharose column (Pharmacia, Uppsala, Sweden), which had been coupled with 10 mg of ED-B containing 7B89 recombinant protein (Carnemolla et al. (1996). Int.”

[4] = target: T1, recombinant ED-B domain of fibronectin; assay: SPR (BIAcore), purified scFv on ED-B
Experimental: as §1

[5] = target: T1, recombinant ED-B domain of fibronectin; assay: competition of the scFv-(biotinylated ED-B) complex with excess unbiotinylated ED-B, electrochemiluminescent detection (Origen)
Experimental: as §1, with “Int.” for “Meth., 206, 171-182) and affinity purified onto a CNBr-activated sepharose column (Pharmacia, Uppsala, Sweden), which had been coupled with 10 mg of ED-B containing 7B89 recombinant protein (Carnemolla et al. (1996). Int.”

T1 sequence (P02751 1266-1356 limits assumed): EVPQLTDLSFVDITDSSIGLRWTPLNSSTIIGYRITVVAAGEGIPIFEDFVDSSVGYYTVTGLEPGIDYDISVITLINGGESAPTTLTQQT
Chain of hen egg lysozyme (hen) (P00698 19-147): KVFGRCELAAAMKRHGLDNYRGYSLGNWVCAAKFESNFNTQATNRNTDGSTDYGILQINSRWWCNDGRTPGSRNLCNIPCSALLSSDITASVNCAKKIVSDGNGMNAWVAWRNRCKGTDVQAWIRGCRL

Molecule: radioiodinated scFv(D1.3)
- immunoreactivity (hen egg lysozyme (hen)): > 80%

Molecule: scFv(HyHEL-10)-Cy5
- immunoreactivity [1]: > 78%

B1: scFv(L19) (scFv)
scFv: EVQLLESGGGLVQPGGSLRLSCAASGFTFSSFSMSWVRQAPGKGLEWVSSISGSSGTTYYADSVKGRFTISRDNSKNTLYLQMNSLRAEDTAVYYCAKPFPYFDYWGQGTLVTVSSGDGSSGGSGGASTGEIVLTQSPGTLSLSPGERATLSCRASQSVSSSYLAWYQQKPGQAPRLLIYYASSRATGIPDRFSGSGSGTDFTLTISRLEPEDFAVYYCQQTGRIPPTFGQGTKVEIKDDDSDDDYKDDDDKHHHHHH
notes: also called antibody L19; anti-ED-B L19
- koff [2]: 9.6e-05 s⁻¹
- Kd [3]: 54 pM
- kon [4]: 110000 M⁻¹ s⁻¹
- koff [5]: 6e-06 s⁻¹
